Laboratory results taken from patent US10464978B2, “Peptides and combination of peptides for use in immunotherapy against ovarian cancer and other cancers” (immatics biotechnologies GmbH, priority 2015, dated 2019).

Molecular target: HLA-A*02:01 (Homo sapiens, UniProt P04439, D140Y/D185E/D98H/E176V/E277Q/G131W/G231S/I119V/I121R/I166T/I218V/L300P/L318F/N151K/N90K/P208A/P217A/Q86G/Q94H/R138H/R169H/T345S)
Assay: MHC binding assay: UV-ligand exchange with beta2m ELISA (peptide exchange yield)
Settings: binding to HLA-A*02:01
How it was run: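 Values give exchange yield, measured by β2m ELISA: 100-fold-diluted monomers bound to streptavidin plates (1h, 37° C), probed with HRP anti-β2m at 2 ug/ml and read at 450 nm after TMB. Monomers came from UV-triggered cleavage of a photolabile peptide and exchange for the test peptide.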

Peptide exchange (MHC class I binding score, peptide exchange yield) | Substance
“+++” (≥50 = +++) | 286 (YLFPGIPEL; listed as Homo sapiens) [compound 286]
“+++” (≥50 = +++) | 287 (FLNEFFLNV; listed as Homo sapiens) [compound 287]
“+++” (≥50 = +++) | 288 (NLINEINGV; listed as Homo sapiens) [compound 288]
“++++” (≥75% = ++++) | 289 (VLLEIEDLQV; listed as Homo sapiens) [compound 289]
“+++” (≥50 = +++) | 295 (VLDRESPNV; listed as Homo sapiens) [compound 295]
“+++” (≥50 = +++) | 296 (FMEGAIIYV; listed as Homo sapiens) [compound 296]
“+++” (≥50 = +++) | 297 (VLADIELAQA; listed as Homo sapiens) [compound 297]
“+++” (≥50 = +++) | 298 (VMITKLVEV; listed as Homo sapiens) [compound 298]
“+++” (≥50 = +++) | 299 (YLLETSGNL; listed as Homo sapiens) [compound 299]
“+++” (≥50 = +++) | 300 (ALLGQTFSL; listed as Homo sapiens) [compound 300]
“+++” (≥50 = +++) | 301 (FLVEDLVDSL; listed as Homo sapiens) [compound 301]
“+++” (≥50 = +++) | 302 (ALLQEGEVYSA; listed as Homo sapiens) [compound 302]
“++++” (≥75% = ++++) | 303 (AILPQLFMV; listed as Homo sapiens) [compound 303]
“+++” (≥50 = +++) | 304 (MTLGQIYYL; listed as Homo sapiens) [compound 304]
“++++” (≥75% = ++++) | 305 (SIANFSEFYV; listed as Homo sapiens) [compound 305]
“+++” (≥50 = +++) | 306 (ALVNVQIPL; listed as Homo sapiens) [compound 306]
“+++” (≥50 = +++) | 307 (ALPVSLPQI; listed as Homo sapiens) [compound 307]
“+++” (≥50 = +++) | 308 (SQYSGQLHEV; listed as Homo sapiens) [compound 308]
“+++” (≥50 = +++) | 309 (GLFDGVPTTA; listed as Homo sapiens) [compound 309]
“++++” (≥75% = ++++) | 310 (FLVDTPLARA; listed as Homo sapiens) [compound 310]
“+++” (≥50 = +++) | 311 (RLYTGMHTV; listed as Homo sapiens) [compound 311]
“+++” (≥50 = +++) | 312 (IISDLTIAL; listed as Homo sapiens) [compound 312]
“+++” (≥50 = +++) | 313 (VLFDDELLMV; listed as Homo sapiens) [compound 313]

Continued, substance first:

Substance | Peptide exchange (MHC class I binding score, peptide exchange yield)
238 (YLISFQTHI; listed as Homo sapiens) [compound 238] | “+++” (≥50 = +++)
239 (AAFAGKLLSV; listed as Homo sapiens) [compound 239] | “+++” (≥50 = +++)
240 (ILLEQAFYL; listed as Homo sapiens) [compound 240] | “+++” (≥50 = +++)
241 (SLVEVNPAYSV; listed as Homo sapiens) [compound 241] | “+++” (≥50 = +++)
242 (AIAYILQGV; listed as Homo sapiens) [compound 242] | “++” (≥20% = ++)
243 (LLLNELPSV; listed as Homo sapiens) [compound 243] | “+++” (≥50 = +++)
244 (SLFGGTEITI; listed as Homo sapiens) [compound 244] | “+++” (≥50 = +++)
245 (SMIDDLLGV; listed as Homo sapiens) [compound 245] | “+++” (≥50 = +++)
246 (LLWEVVSQL; listed as Homo sapiens) [compound 246] | “+++” (≥50 = +++)
247 (VLLPNDLLEKV; listed as Homo sapiens) [compound 247] | “+++” (≥50 = +++)
248 (FLFPNQYVDV; listed as Homo sapiens) [compound 248] | “+++” (≥50 = +++)
249 (LLDGFLVNV; listed as Homo sapiens) [compound 249] | “+++” (≥50 = +++)
250 (ALSEEGLLVYL; listed as Homo sapiens) [compound 250] | “+++” (≥50 = +++)
251 (ALYTGFSILV; listed as Homo sapiens) [compound 251] | “++” (≥20% = ++)
252 (LLIGTDVSL; listed as Homo sapiens) [compound 252] | “+++” (≥50 = +++)
253 (GLDAATATV; listed as Homo sapiens) [compound 253] | “++” (≥20% = ++)
254 (TLLAFIMEL; listed as Homo sapiens) [compound 254] | “+++” (≥50 = +++)
255 (VLASYNLTV; listed as Homo sapiens) [compound 255] | “+++” (≥50 = +++)
256 (FLPPEHTIVYI; listed as Homo sapiens) [compound 256] | “+++” (≥50 = +++)
257 (SIFSAFLSV; listed as Homo sapiens) [compound 257] | “+++” (≥50 = +++)
258 (ELAERVPAI; listed as Homo sapiens) [compound 258] | “++” (≥20% = ++)
261 (YVLEFLEEI; listed as Homo sapiens) [compound 261] | “++” (≥20% = ++)

Substance | Peptide exchange (MHC class I binding score, peptide exchange yield)
262 (LLWGDLIWL; listed as Homo sapiens) [compound 262] | “+++” (≥50 = +++)
263 (LLVSNLDFGV; listed as Homo sapiens) [compound 263] | “+++” (≥50 = +++)
264 (SLQEQLHSV; listed as Homo sapiens) [compound 264] | “+++” (≥50 = +++)
265 (LLFGGTKTV; listed as Homo sapiens) [compound 265] | “++” (≥20% = ++)
266 (KITDTLIHL; listed as Homo sapiens) [compound 266] | “+++” (≥50 = +++)
267 (ALQDFLLSV; listed as Homo sapiens) [compound 267] | “+++” (≥50 = +++)
269 (RVLEVGALQAV; listed as Homo sapiens) [compound 269] | “++” (≥20% = ++)
270 (LLLDEEGTFSL; listed as Homo sapiens) [compound 270] | “++” (≥20% = ++)
271 (LVYPLELYPA; listed as Homo sapiens) [compound 271] | “+++” (≥50 = +++)
272 (ALGNTVPAV; listed as Homo sapiens) [compound 272] | “+++” (≥50 = +++)
273 (NLFQSVREV; listed as Homo sapiens) [compound 273] | “++” (≥20% = ++)
274 (SLLFSLFEA; listed as Homo sapiens) [compound 274] | “++” (≥20% = ++)
275 (YLVYILNEL; listed as Homo sapiens) [compound 275] | “++” (≥20% = ++)
276 (ALFTFSPLTV; listed as Homo sapiens) [compound 276] | “+++” (≥50 = +++)
277 (LLPPLESLATV; listed as Homo sapiens) [compound 277] | “++” (≥20% = ++)
278 (QLLDVVLTI; listed as Homo sapiens) [compound 278] | “++” (≥20% = ++)
279 (ALWGGTQPLL; listed as Homo sapiens) [compound 279] | “++” (≥20% = ++)
280 (VLPDPEVLEAV; listed as Homo sapiens) [compound 280] | “+++” (≥50 = +++)
281 (ILRESTEEL; listed as Homo sapiens) [compound 281] | “+++” (≥50 = +++)
282 (LLADVVPTT; listed as Homo sapiens) [compound 282] | “+++” (≥50 = +++)
284 (ILLSQTTGV; listed as Homo sapiens) [compound 284] | “+++” (≥50 = +++)
285 (QLLHVGVTV; listed as Homo sapiens) [compound 285] | “+++” (≥50 = +++)
